Experiment [1] has as its target HLA-A*02:01. Put plainly: IEDB peptide-MHC binding, purified MHC/competitive/fluorescence; filed as Kd, often an IC50 or EC50 that approximates it; ≥ and ≤ were set here for values at or beyond the usual limits of such assays.
For a further experiment, the target named is HLA-A*02:19. The experiment is described as above.
Experiment [2] has as its target HLA-A*03:01. Described as above. The following applies: source organism: Salmonella enterica subsp. enterica serovar Choleraesuis str. SC-B67.
A further experiment addresses HLA-A*23:01. The description is as above. The note with it: source organism: Salmonella enterica subsp. enterica serovar Choleraesuis str. SC-B67.
In a further experiment the target is HLA-A*24:03. Described as above.
The target of experiment [3] is HLA-A*26:01. The description is as above. The following applies: source organism: Salmonella enterica subsp. enterica serovar Choleraesuis str. SC-B67.
The next experiment addresses HLA-A*29:02. The experiment is described as above. The note with it: source organism: Salmonella enterica subsp. enterica serovar Choleraesuis str. SC-B67.
For experiment [4], the target named is HLA-B*15:01. The experiment is described as above. The note with it: source organism: Salmonella enterica subsp. enterica serovar Choleraesuis str. SC-B67.
For experiment [5], the target named is HLA-B*15:17. The description is as above. The note with it: source organism: Salmonella enterica subsp. enterica serovar Choleraesuis str. SC-B67.
The target of a further experiment is HLA-B*18:01. The experiment is described as above. The note with it: source organism: Salmonella enterica subsp. enterica serovar Choleraesuis str. SC-B67.
A further experiment concerns the target HLA-B*27:03. The description is as above. The following applies: source organism: Salmonella enterica subsp. enterica serovar Choleraesuis str. SC-B67.
A further experiment has as its target HLA-B*39:01. The experiment is described as above. The note with it: source organism: Salmonella enterica subsp. enterica serovar Choleraesuis str. SC-B67.
In a further experiment the target is HLA-B*46:01. Described as above. The following applies: source organism: Salmonella enterica subsp. enterica serovar Choleraesuis str. SC-B67.
Experiment [6] deals with HLA-B*57:01. Described as above. The note with it: source organism: Salmonella enterica subsp. enterica serovar Choleraesuis str. SC-B67.
For a further experiment, the target named is HLA-C*12:03. The experiment is described as follows: IEDB peptide-MHC binding, purified MHC/direct/fluorescence; filed as Kd, often an IC50 or EC50 that approximates it; ≥ and ≤ were set here for values at or beyond the usual limits of such assays.
For another experiment, the target named is HLA-B*58:01. The experiment is described as above.
A further experiment concerns the target HLA-C*05:01. The experiment is described as above.
The next experiment has as its target HLA-C*15:02. The experiment is described as above.
In experiment [7] the target is HLA-A*02:01. The experiment is described as above.
The next experiment has as its target HLA-A*69:01. The experiment is described as above.
A further experiment addresses HLA-A*01:01. Described as above. The following applies: source organism: Rickettsia felis.
Experiment [8] has as its target HLA-A*03:01. Described as above. The following applies: source organism: Rickettsia felis.
The target in another experiment is HLA-A*11:01. The experiment is described as above. The following applies: source organism: Rickettsia felis.
Experiment [9] has as its target HLA-A*26:01. Described as above. The note with it: source organism: Rickettsia felis.
A further experiment concerns the target HLA-A*31:01. The description is as above. The note with it: source organism: Rickettsia felis.
A further experiment addresses HLA-B*07:02. The description is as above. The note with it: source organism: Rickettsia felis.
Another experiment deals with HLA-B*08:01. The description is as above. The note with it: source organism: Rickettsia felis.
For experiment [10], the target named is HLA-B*15:01. The description is as above. The note with it: source organism: Rickettsia prowazekii.
For experiment [11], the target named is HLA-B*15:17. The description is as above.
For a further experiment, the target named is HLA-B*27:05. The description is as above. The following applies: source organism: Rickettsia felis.
A further experiment addresses HLA-B*35:01. Described as above. The following applies: source organism: Rickettsia prowazekii.
In another experiment the target is HLA-B*40:01. The description is as above. The following applies: source organism: Rickettsia felis.
For experiment [12], the target named is HLA-B*57:01. Described as above.
A further experiment addresses HLA-A*02:12. Put plainly: IEDB peptide-MHC binding, purified MHC/competitive/fluorescence; filed as Kd, often an IC50 or EC50 that approximates it; ≥ and ≤ were set here for values at or beyond the usual limits of such assays. The note with it: source organism: Burkholderia pseudomallei 668.
The target in a further experiment is HLA-B*48:01. Put plainly: IEDB peptide-MHC binding, purified MHC/direct/fluorescence; filed as Kd, often an IC50 or EC50 that approximates it; ≥ and ≤ were set here for values at or beyond the usual limits of such assays. The note with it: source organism: West Nile virus.
A further experiment deals with HLA-C*06:02. The description is as above.
In the next experiment the target is HLA-B*15:42. Put plainly: IEDB peptide-MHC binding, purified MHC/competitive/fluorescence; filed as Kd, often an IC50 or EC50 that approximates it; ≥ and ≤ were set here for values at or beyond the usual limits of such assays. The following applies: source organism: Burkholderia mallei SAVP1.
In the next experiment the target is HLA-B*45:06. Described as above. The note with it: source organism: Burkholderia mallei SAVP1.
The next experiment has as its target HLA-B*83:01. The experiment is described as above. The note with it: source organism: Burkholderia mallei SAVP1.
[13] abbreviates: source organism: Salmonella enterica subsp. enterica serovar Choleraesuis str. SC-B67.
Setting [14] is: source organism: Listeria monocytogenes EGD-e.
[15] abbreviates: source organism: Vibrio cholerae.
[16] abbreviates: source organism: Rickettsia felis.
Setting [17] is: source organism: Acinetobacter baylyi.
[18] abbreviates: source organism: Burkholderia thailandensis.

GIALAVPCV: the Kd (usually the concentration at which binding is half-saturated) in the experiment with HLA-A*02:01 [1] (setting [13]) was 0.0007 µM; with HLA-A*02:19 (setting [13]) it was 0.0018 µM; with HLA-A*03:01 [2] it was no less than 20 µM; with HLA-A*23:01, no less than 20 µM; in the experiment with HLA-A*24:03 (setting [13]), no less than 20 µM; with HLA-A*26:01 [3], no less than 20 µM. The dissociation constant (Kd) in the experiment with HLA-A*29:02 is 3 µM; in the experiment with HLA-B*15:01 [4] it was no less than 20 µM; with HLA-B*15:17 [5] it was no less than 20 µM; with HLA-B*18:01, no less than 20 µM; in the experiment with HLA-B*27:03, no less than 20 µM; with HLA-B*39:01, no less than 20 µM. The Kd in the experiment with HLA-B*46:01 and with HLA-B*57:01 [6] was no less than 20 µM throughout.
On to VSFICTTIL, for which the Kd with HLA-C*12:03 (source organism: Murid gammaherpesvirus 4) stood at 0.485 µM. This lies in the sub-micromolar range.
Regarding KAAETYHVF, the Kd with HLA-B*58:01 (source organism: Listeria monocytogenes) was 0.022 µM; in the experiment with HLA-C*05:01 (setting [14]) it was no less than 20 µM; in the experiment with HLA-C*15:02 (setting [14]), 0.036 µM.
In the case of VADEIAFGL, the Kd with HLA-C*05:01 (source organism: Escherichia coli E22) was no more than 0.001 µM.
As for KLTEEIIKL, the dissociation constant (Kd) is 0.0421 µM with HLA-A*02:01 [7] (setting [15]), 2.21 µM with HLA-A*69:01 (setting [15]) and no less than 20 µM with HLA-C*15:02 (source organism: Vibrio cholerae MAK 757).
Regarding GSFKEYVFW, the dissociation constant (Kd) in the experiment with HLA-A*01:01, in the experiment with HLA-A*02:01 [7] (setting [16]), with HLA-A*03:01 [8], with HLA-A*11:01, in the experiment with HLA-A*26:01 [9] and with HLA-A*31:01 was no less than 20 µM each time. The equilibrium dissociation constant (Kd) with HLA-A*69:01 (setting [16]) is no less than 20 µM; in the experiment with HLA-B*07:02, no less than 20 µM; in the experiment with HLA-B*08:01, no less than 20 µM; with HLA-B*15:01 [10] it was 5.69 µM; with HLA-B*15:17 [11] (setting [16]) it was 0.105 µM; with HLA-B*27:05, no less than 20 µM. The Kd is 1.9 µM with HLA-B*35:01, no less than 20 µM with HLA-B*40:01, 0.167 µM in the experiment with HLA-B*57:01 [12] (setting [16]) and 0.00781 µM in the experiment with HLA-B*58:01 (source organism: Rickettsia prowazekii).
Sequence MTIGMANLI yielded a dissociation constant Kd with HLA-C*05:01 (source organism: Influenza A virus (A/California/04/2009(H1N1))) of no less than 20 µM.
Turning to GIYGAVIPL, the Kd is no more than 0.0001 µM with HLA-A*02:01 [1] (source organism: Burkholderia pseudomallei 668) and 0.0086 µM with HLA-A*02:12.
RRSRRSLTV: the equilibrium dissociation constant (Kd) with HLA-B*48:01 is no less than 20 µM; in the experiment with HLA-C*06:02 (source organism: West Nile virus), 0.036 µM.
Regarding FTRDTGATL, in the experiment with HLA-C*12:03 (source organism: Mycobacterium tuberculosis variant bovis BCG str. Pasteur 1173P2), the Kd was no more than 0.001 µM.
With DLMLLSYSL, the Kd with HLA-A*02:01 [1] (setting [17]) came out at 0.16 µM; with HLA-A*02:19 (setting [17]), 0.0141 µM.
The sequence IRHNKDRKV gave a dissociation constant Kd in the experiment with HLA-C*06:02 (source organism: Mus musculus) of 0.026 µM.
Sequence YYVMGGAFL returned a Kd in the experiment with HLA-A*24:03 (source organism: Bacillus anthracis str. A0488) of 0.0003 µM.
MALATGLWW: the Kd with HLA-B*15:17 [11] (setting [18]) is 0.0004 µM; with HLA-B*57:01 [12] (source organism: Burkholderia mallei ATCC 23344) it was 0.033 µM; in the experiment with HLA-B*58:01 (setting [18]), 0.0005 µM; with HLA-B*15:42, no less than 5 µM; with HLA-B*45:06, no less than 5 µM; in the experiment with HLA-B*83:01 it was no less than 5 µM.

Source of the values: the Immune Epitope Database (IEDB).
